Measurements from patent US6773704B1, “Methods of treating vascular disease associated with cystatin C deficiency” (The Brigham and Women's Hospital, Inc., priority 1999, dated 2004).
“Also recorded” adds a separate entry of the source.

Experiments:
Type in all cases: cell-based, human
[1] = test system: cathepsin S and cystatin C protein/secretion by smooth muscle cells; experiment: Immunoblot analysis of smooth muscle cell lysates and culture medium; conditions: for cystatin C secretion (level of secreted cystatin C): cultured vascular smooth muscle cells, culture medium
Procedure: Human sapheneous vein smooth muscle cells were cultured in Swell plates in Dulbecco's Modification of Eagle's Medium (DMEM) containing 10% fetal bovine serum (FBS) until confluent. […] Culture medium was then collected and centrifuged at 16000×g for 10 min. Proteins were precipitated with 20% trichloroacetic acid on ice for 30 min. followed by repeat centrifugation. The protein pellet was briefly washed with 100% ethanol and resuspended in electrophoresis sample buffer smooth muscle cells were lysed directly into sample buffer after two washes with 1×PBS. Both cell lysates and proteins from culture medium were separated on SDS-PAGE for immunoblot analysis with antibodies against human cathepsin S and cystatin C as described above. All Western blots were developed with Western Blot Chemiluminescence Reagent (NEN Life Science Products, Inc., Boston, Mass., USA).

[2] = test system: cathepsin S and cystatin C mRNA in smooth muscle cells; experiment: Northern blot analysis of smooth muscle cell RNA
Procedure: Total RNAs were isolated from control and IFN-γ-stimulated smooth muscle cells for Northern blot analysis. Northern blot analysis was performed as follows: After INF-γ and TGF-β1 treatments, 1.5×10^7 smooth muscle cells were lysed in 5 ml of guanidium. isothiocyanate (GTC) lysis buffer for RNA preparation as described (Sukhova et al., 102 J. Clin. Invest. 576-83 (1998)). Twenty micrograms of total RNA from smooth muscle cells were separated on 1.2% agarose gel and blotted on Zeta-Probe GT blotting membrane (Bio-Rad Laboratories, Inc.). A human cystatin C probe was generated by polymerase chain reaction using cystatin C cDNA. The 500 bp cystatin C cDNA fragment and cathepsin S cDNA probe (Sukhova et al., 102 J. Clin. Invest 576-83 (1998)) were labeled with [^32P]-dCTP and purified with NENSORB 20 column (NEN Life Science Products, Inc.) before hybridizing as previously described (Sukhova et al., 102 J. Clin. Invest. 576-83 (1998)).

[3] = test system: IFN-γ-stimulated smooth muscle cells elastase activity; experiment: Elastase assay: smooth muscle cells co-cultured with insoluble [3H]-elastin
Description: FIG. 2 is a bar graph showing that smooth muscle cells elastase activity is inhibited by recombinant cystatin C. Interferon-γ stimulated smooth muscle cells were co-cultured in serum-free medium with insoluble elastin in the presence of increasing concentrations of cystatin C as indicated in the panel. After 72 hrs, media were collected and soluble radioactivity measured as an index of elastin degradation.
FIG. 3 is a graph showing that TGF-β1 blocks smooth muscle cells elastase activity. Interferon-stimulated smooth muscle cells were co-cultured with elastin as above in the presence of increasing amounts of TGF-β1 and elastin degradation quantified after 72 hrs.
Prior studies documenting the capacity of macrophages to use cysteine proteases to degrade elastin found macrophage elastolytic activity to be insensitive to the presence of pericellular serum protease inhibitors (Reedy et al., 92 Porch. Natl. Acad. Sci. 3849-853 (1995); Chapman et al., 74 J. Clin. Invest. 1693-700 (1984)). Given the marked reduction of cystatin C in atherosclerotic and aneurysmal lesions and the clinical correlation in EXAMPLES 1-3, the influence of cystatin C on the elastolytic activity of cultured vascular smooth muscle cells was examined. Vascular smooth muscle cells were stimulated with IFN-γ (500 units/ml) for 24 hours to augment cathepsin S-dependent elastase activity (Sukhova et al., 102 J. Clin. Invest. 576-83 (1998)). In co-cultures with insoluble elastin, the addition of as little as 10 ng/ml of recombinant cystatin C inhibits elastin degradation (FIG. 2). Higher concentrations of cystatin C block >75% of the IFNγ-induced activity, confirming that smooth muscle cells elastase activity depends largely on elastolytic cysteine proteases.
The elastase assay was performed as follows: Smooth muscle cells were cultured on 24-well plates in 10% FBS DMEM until 100% confluence (5×10^5 cells/well). […] The digested elastin radioactivity was counted using 200 μl of medium and the data presented as μg elastin degraded per 10^6 cells in 24 hours.

[4] = smooth muscle cells, TGF-β1 5 ng/ml
[5] = smooth muscle cells stimulated with IFN-γ (500 units/ml)

Row | Molecule | cystatin C secretion (level of secreted cystatin C) [1] | time after exposure at which cystatin C biosynthesis increases ([1]; smooth muscle cells exposed to TGF-β1) | level of cathepsin S protein [1, 4] | level of cathepsin S mRNA [2, 4] | level of cystatin C mRNA [2, 4] | concentration that almost completely blocks elastase activity ([3]; IFN-γ-stimulated smooth muscle cells, elastin degradation after 72 hrs) [ng/mL] | concentration that inhibits elastin degradation (elastolytic activity) ([3]; IFN-γ (500 units/ml) stimulated vascular smooth muscle cells co-cultured with insoluble elastin, 72 hrs) [ng/mL] | block of IFNγ-induced elastase activity ([3]; higher concentrations of cystatin C (tested 0-500 ng/ml), IFN-γ-stimulated smooth muscle cells) [%] | secretion of active cathepsin S [1, 5] | cathepsin S mRNA [2, 5]
1 | TGF-β1: transforming growth factor-β1, native or recombinant cytokine (SEQ ID NO:2); induces cystatin C secretion | markedly increases; also recorded: stimulates; also recorded: potent inducer | one | does not change | does not change | does not change | ≤ 1 | – | – | – | –
2 | recombinant cystatin C: 13 kDa extracellular inhibitor of cysteine proteases, human sequence SEQ ID NO:1; native or recombinant (protein, UniProt P01034 27-146, looked up) Cystatin-C: SSPGKPPRLVGGPMDASVEEEGVRRALDFAVGEYNKASNDMYHSRALQVVRARKQIVAGVNYFLDVELGRTTCTKTQPNLDNCPFHDQPHLKRKAFCSFQIYAVPWQGTMTLSKSTCQDA | – | – | – | – | – | – | ≤ 10 | > 75 | – | –
3 | IFN-γ: pro-inflammatory cytokine used at 500 units/ml to stimulate smooth muscle cell cathepsin S-dependent elastase activity (protein, UniProt P01579 24-161, looked up) Interferon gamma: QDPYVKEAENLKKYFNAGHSDVADNGTLFLGILKNWKEESDRKIMQSQIVSFYFKLFKNFKDDQSIQKSVETIKEDMNVKFFNSNKKKRDDFEKLTNYSVTDLNVQRKAIHELIQVMAELSPAAKTGKRKRSQMLFRG | no effect | – | – | – | – | – | – | – | induces | induces
